In article PMC5912465:

Biological target: CCL8 (human chemokine panel) (human) (UniProt P80075)
Sequence (P80075 24-99): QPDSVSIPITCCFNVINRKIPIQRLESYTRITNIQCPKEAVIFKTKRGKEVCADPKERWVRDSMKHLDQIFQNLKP

P672(1_44)-EVA1(29_94) hybrid evasin (from UniProt L7MC74;P0C8E7)
IC50 of neutralization of CCL8-induced THP-1 monocyte cell migration (EC80 dose of CCL8): 48 nM
